The target of assay [1] is T1, recombinant human TNF-α protein (human, UniProt P01375 77-233).
T1 construct: also called soluble TNF-α; recombinant soluble TNF-α protein
The experiment in a line: ELISA, recombinant human TNF-α coated at 1 µg/ml, HRP goat anti-human Fd detection.
Protocol: After washing in the same manner as described above, HRP-conjugated goat anti-human Fd antibodies (Southern Biotechnology, Birmingham, Ala.) were diluted with a 0.3% PBA buffer in 1:4,000, and each 100 μl of the diluted antibody samples were added to each well to then be allowed to react at room temperature for 1 hour. To assess antigen-specific binding of the antibodies reacting after the washing, a TMB substrate (BD Bioscience, Franklin Lakes, N.J.) was added and reacted, and the absorbance was measured using a microplate spectrophotometer at A450 nm.
(§1) HRP-conjugated goat anti-human Fd antibodies were used as secondary antibodies.

Assay [2] addresses T2, human serum albumin (HSA) (human, UniProt P02768 25-609). The assay is described as follows: ELISA, HSA coated at 1 µg/ml, HRP goat anti-human Fd detection.
Protocol: After blocking for 2 hours, washing was performed by repeatedly performing a process of completely removing the added buffer, adding each 300 μl of a buffer (PBS-T) containing 0.1% tween-20 PBS (pH 7.4), and then removing the buffer 3 times in total. After removing water remaining after the washing, the respective antibodies were serially diluted 10 folds at concentrations decreasing from 100 nM to 1.0×10⁻⁴ nM in a PBS pH 7.4 buffer (0.3% PBA) containing 0.3% bovine serum albumin and 0.1% tween-20, and each 100 μl of the diluted antibody samples were added to each well to be allowed to react at room temperature for 2 hours. After washing in the same manner as described above, HRP-conjugated goat anti-human Fd antibodies (Southern Biotechnology, Birmingham, Ala.) were diluted with a 0.3% PBA buffer in 1:4,000, and each 100 μl of the diluted antibody samples were added to each well to then be allowed to react at room temperature for 1 hour. To assess antigen-specific binding of the antibodies reacting after the washing, a TMB substrate (BD Bioscience, Franklin Lakes, N.J.) was added and reacted, and the absorbance was measured using a microplate spectrophotometer at A450 nm.
as §1
The target in assay [3] is T3, recombinant human CD40L (rhCD40L-his) (human, UniProt P29965 113-261, limits assumed).
T3 construct: Soluble recombinant form made by the applicant; also called rhCD40L antigen
T3 sequence (looked up): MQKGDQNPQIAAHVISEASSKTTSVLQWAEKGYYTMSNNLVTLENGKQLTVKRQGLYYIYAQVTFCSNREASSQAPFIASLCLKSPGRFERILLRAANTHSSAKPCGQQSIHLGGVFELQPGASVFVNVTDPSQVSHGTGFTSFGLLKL
The assay is described as follows: ELISA, recombinant human CD40L coated at 1 µg/ml, HRP goat anti-human Fd detection.

Assay [4] has as its target T1, recombinant human TNF-α protein. The assay is described as follows: BLI (Octet RED), antigen on AR2G biosensor.
In assay [5] the target is T3, recombinant human CD40L (rhCD40L-his). The assay is described as follows: BLI (Octet RED), antigen on AR2G biosensor.
Assay [6] has as its target T2, human serum albumin (HSA). The assay is described as follows: BLI (Octet RED), antigen on AR2G biosensor.
The target in assay [7] is T3, recombinant human CD40L (rhCD40L-his). The assay is described as follows: ELISA, CD40L coated at 1 µg/ml.
The target of assay [8] is T1, recombinant human TNF-α protein. The experiment in a line: cell-based or functional assay.
For assay [9], the target named is T4, cell membrane CD40L expressed on D1.1 cells (UniProt P29965 1-261, limits assumed).
T4 sequence (looked up): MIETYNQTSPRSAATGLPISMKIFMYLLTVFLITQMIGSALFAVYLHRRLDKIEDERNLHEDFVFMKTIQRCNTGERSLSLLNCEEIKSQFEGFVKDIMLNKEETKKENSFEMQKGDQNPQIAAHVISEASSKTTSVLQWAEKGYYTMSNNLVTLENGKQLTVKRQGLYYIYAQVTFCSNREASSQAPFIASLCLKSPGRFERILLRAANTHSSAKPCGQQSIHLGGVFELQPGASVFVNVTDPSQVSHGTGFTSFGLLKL
The assay is described as follows: cell-based or functional assay.

T1 sequence (P01375 77-233 limits assumed): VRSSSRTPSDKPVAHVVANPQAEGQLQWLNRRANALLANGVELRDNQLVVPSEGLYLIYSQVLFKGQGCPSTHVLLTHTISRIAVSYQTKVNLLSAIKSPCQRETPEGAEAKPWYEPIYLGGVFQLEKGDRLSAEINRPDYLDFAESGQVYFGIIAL

B1: SL335 Fab (anti-human serum albumin Fab) (Fab, V domains shown)
VH: QVQLVQSGGGPVKPGGSLRLSCAASGFMFRAYSMNWVRQAPGKGLEWVSSISSSGRYIHYADSVKGRFTISRDNAKNSLYLQMNSLRAEDTAVYYCARETVMAGKALDYWGQGTLVTVSS
VL: DIVLTQSPGTLSLSPGETATLSCRASQSVGSNLAWYQQKPGQAPRLLIYGASTGATGVPARFSGSRSGTDFTLTITSLQPEDFATYYCQQYYSFLAKTFGQGTQLEIKR
notes: also called anti-HSA Fab (SL335)
With B1, the binding result in assay [1] is given as “no binding (tested: 100 nM)”. Also, the concentration giving a half-maximal response (EC50 (read off the curve)) in assay [2] is about 0.3 nM.

B2: APB-A1, (anti-CD40L hu5c8 scFv)2-anti-HSA SL335 Fab (bispecific antibody)
heavy: DIVLTQSPATLSVSPGERATISCRASQRVSSSTYSYMHWYQQKPGQPPKLLIKYASNLESGVPARFSGSGSGTDFTLTISSVEPEDFATYYCQHSWEIPPTFGGGTKLEIKRGGGGSGGGGSGGGGSQVQLVQSGAEVVKPGASVKLSCKASGYIFTSYYMYWVKQAPGQGLEWIGEINPSNGDTNFNEKFKSKATLTVDKSASTAYMELSSLRSEDTAVYYCTRSDGRNDMDSWGQGTLVTVSSGGGGSGGGGSGGGGSQVQLVQSGGGPVKPGGSLRLSCAASGFMFRAYSMNWVRQAPGKGLEWVSSISSSGRYIHYADSVKGRFTISRDNAKNSLYLQMNSLRAEDTAVYYCARETVMAGKALDYWGQGTLVTVSSASTKGPSVFPLAPSSKSTSEGTAALGCLVKDYFPEPVTVSWNSGALTSGVHTFPAVLQSSGLYSLSSVVTVPSSSLGTQTYICNVNHKPSNTKVDKKVEPKSS
light: DIVLTQSPATLSVSPGERATISCRASQRVSSSTYSYMHWYQQKPGQPPKLLIKYASNLESGVPARFSGSGSGTDFTLTISSVEPEDFATYYCQHSWEIPPTFGGGTKLEIKRGGGGSGGGGSGGGGSQVQLVQSGAEVVKPGASVKLSCKASGYIFTSYYMYWVKQAPGQGLEWIGEINPSNGDTNFNEKFKSKATLTVDKSASTAYMELSSLRSEDTAVYYCTRSDGRNDMDSWGQGTLVTVSSGSTSGSGKPGSGEGSTKGDIVLTQSPGTLSLSPGETATLSCRASQSVGSNLAWYQQKPGQAPRLLIYGASTGATGVPARFSGSRSGTDFTLTITSLQPEDFATYYCQQYYSFLAKTFGQGTQLEIKRTVAAPSVFIFPPSDEQLKSGTASVVCLLNNFYPREAKVQWKVDNALQSGNSQESVTEQDSKDSTYSLSNTLTLSKADYEKHKVYACEVTHQGLSSPVTKSFNRGES
notes: No Fc; also called (anti-hu5c8 scFv)2-SL335; (anti-CD40L scFv)2-anti-HSA Fab
As for B2, the binding result in [1] is given as “no binding (tested: 100 nM)”. The 50% effective concentration (EC50 (read off the curve)) in assay [2] is about 0.5 nM.

B3: APB-B1a, (anti-CD40L scFv)2-(anti-HSA SL335 Fab)-(anti-TNF-α Fv) (bispecific antibody)
chain 1: DIVLTQSPATLSVSPGERATISCRASQRVSSSTYSYMHWYQQKPGQPPKLLIKYASNLESGVPARFSGSGSGTDFTLTISSVEPEDFATYYCQHSWEIPPTFGGGTKLEIKRGGGGSGGGGSGGGGSQVQLVQSGAEVVKPGASVKLSCKASGYIFTSYYMYWVKQAPGQGLEWIGEINPSNGDTNFNEKFKSKATLTVDKSASTAYMELSSLRSEDTAVYYCTRSDGRNDMDSWGQGTLVTVSSGGGGSGGGGSGGGGSQVQLVQSGGGPVKPGGSLRLSCAASGFMFRAYSMNWVRQAPGKGLEWVSSISSSGRYIHYADSVKGRFTISRDNAKNSLYLQMNSLRAEDTAVYYCARETVMAGKALDYWGQGTLVTVSSASTKGPSVFPLAPSSKSTSEGTAALGCLVKDYFPEPVTVSWNSGALTSGVHTFPAVLQSSGLYSLSSVVTVPSSSLGTQTYICNVNHKPSNTKVDKKVEPKSSGGGGSGGGGSGGGGSEVQLVESGGGLVQPGGSLRLSCAASGYVFTDYGMNWVRQAPGKGLEWMGWINTYIGEPIYADSVKGRFTFSLDTSKSTAYLQMNSLRAEDTAVYYCARGYRSYAMDYWGQGTLVTVSS
chain 2: DIVLTQSPATLSVSPGERATISCRASQRVSSSTYSYMHWYQQKPGQPPKLLIKYASNLESGVPARFSGSGSGTDFTLTISSVEPEDFATYYCQHSWEIPPTFGGGTKLEIKRGGGGSGGGGSGGGGSQVQLVQSGAEVVKPGASVKLSCKASGYIFTSYYMYWVKQAPGQGLEWIGEINPSNGDTNFNEKFKSKATLTVDKSASTAYMELSSLRSEDTAVYYCTRSDGRNDMDSWGQGTLVTVSSGSTSGSGKPGSGEGSTKGDIVLTQSPGTLSLSPGETATLSCRASQSVGSNLAWYQQKPGQAPRLLIYGASTGATGVPARFSGSRSGTDFTLTITSLQPEDFATYYCQQYYSFLAKTFGQGTQLEIKRTVAAPSVFIFPPSDEQLKSGTASVVCLLNNFYPREAKVQWKVDNALQSGNSQESVTEQDSKDSTYSLSNTLTLSKADYEKHKVYACEVTHQGLSSPVTKSFNRGESGSTSGSGKPGSGEGSTKGDIQMTQSPSSLSASVGDRVTITCKASQNVGTNVAWYQQKPGKAPKALIYSASFLYSGVPYRFSGSGSGTDFTLTISSLQPEDFATYYCQQYNIYPLTFGQGTKVEIKR
As to B3, the “EC50 (read off the curve)” value is about 0.2 nM in assay [3], about 1 nM in assay [1] and about 0.5 nM in assay [2]. The Kd stood at 0.164 nM in assay [4], 0.192 nM in assay [5] and 0.765 nM in [6]. Also, the koff in assay [4] was 3.82e-05 s⁻¹; in [5], 0.000113 s⁻¹; in assay [6] it was 0.00042 s⁻¹. The kon turned out to be 230000 M⁻¹ s⁻¹ in assay [4], 590000 M⁻¹ s⁻¹ in assay [5] and 549000 M⁻¹ s⁻¹ in [6]. Further, the “fold lower binding capacity than anti-human CD40L IgG1 (ruplizumab)” value in assay [7] is about 1.5 fold. In addition, in [8], the “IC50, SEAP response of HEK-Blue reporter cells + soluble TNF-α 10 ng/ml (FIG. 22B)” value is 3.05 nM. For the same molecule, the “IC50, inhibition of TNF-α mediated cytotoxicity on L929 mouse cells, with HSA (FIG. 21)” value in assay [8] amounted to 5.3 nM. Moreover, the “percent inhibition, SEAP response of HEK-Blue reporter cells + D1.1 cells + soluble TNF-α together (FIG. 22C)” value in assay [8] and in [9] was 100% each time.

The values above are taken from patent US20230073034A1 (APRILBIO, published 2023).
